Reference: US20050136462

What was measured:
[1] = test system: Nb.BsaI N441D/R442G (A11) N441D/R442G; test: cleavage_in_vitro; settings: bottom-strand nicking; estimated in cell extract
[2] = test system: Nb.BsaI R442G R442G; test: cleavage_in_vitro; settings: predominant nicking; about 8-fold lower than N441D/R442G

With “GGTCTCNNNNN (double strand) [BsaI site (in supercoiled pUC19)]” the activity (units/g wet cells) [1] was 800000 and the activity (units/g wet cells) [2] was 100000.
